The subject of one assay is PSD95. Briefly: Yeast two-hybrid interaction with PSD95 PDZ domains (amino acids 20-364). Type of assay: cell-based. The source says: (§1) FIGS. 1A-1C. Cloning of the CAPON cDNA and distribution of CAPON mRNA. […] Yeast were transformed with the indicated Gal4 activation domain (AD) and Gal4 DNA-binding domain (BD) plasmids and grown on plates […] histidine. A typical filter lift is shown in which b-galactosidase activity was detected by the appearance of a blue precipitate. pAD-CAPON1, comprising the last 125 amino acids of CAPON, activates lacZ transcription in the presence of pBD-nNOS (2-377) but not with plasmids the first three PDZ domains of PSD95 (amino acids 20-364) or the second PDZ domain of PSD93 (amino acids 116-421).
(§2) We conducted a yeast two-hybrid screen employing the first 377 amino acids of nNOS, a region which includes the PDZ domain that comprises the first 100 amino acids of nNOS. […] The CAPON two-hybrid clones share a common carboxyl terminus and are predicted to translate into 125 and 327 amino acid peptides followed by a stop codon. […] Moreover, nNOS fails to interact with another control protein, c-fos. To obtain a full-length CAPON cDNA, we screened a rat brain cDNA library with the larger two-hybrid clone and isolated a 2100 bp cDNA which overlapped with the two-hybrid clone and was used to assemble a final 2820 bp cDNA (see Methods). The conceptual translation of this cDNA produces a 503 amino acid protein (FIG. 1B SEQ ID NO:4). […]

The test system of assay [1] is nNOS. Briefly: Yeast two-hybrid interaction with nNOS (2-377). Type of assay: cell-based, rat.
Description: as §1
We conducted a yeast two-hybrid screen employing the first 377 amino acids of nNOS, a region which includes the PDZ domain that comprises the first 100 amino acids of nNOS. […]
Two-hybrid screens and the construction of the parent vectors pPC86, containing the GAL4-activation domain, and pPC97, containing the GAL4-DNA binding domain, have been described (Jaffrey and Snyder, 1996). Plasmid pBD-NOS(2-377) was prepared by the insertion of an nNOS PCR product corresponding to amino acids 2-377 of rat nNOS into the Sal I and Bgl II sites of pPC97, resulting in an open reading frame encoding a GAL4 BD-NOS fusion protein (Jaffrey and Snyder, 1996). […]

The test system of a further assay is PSD93. The experiment in a line: Yeast two-hybrid interaction with PSD93 second PDZ domain (amino acids 116-421). Type of assay: cell-based.
Description: as §1, §2

The test system of another assay is iNOS. The experiment in a line: GST-fusion protein binding assay with lysates of transfected HEK293 cells, iNOS. The conditions noted are these: Western blot. The method, then: (§3) (FIG. 2A) CAPON binds to nNOS, but not eNOS or iNOS. Bacterially expressed GST, GST-PIN, and GST-CAPON were bound to glutathione agarose and then incubated with lysates of HEK293 cells transfected with expression plasmids for the indicated isoforms of NOS. After extensive washing of the resins, bound NOS was detected with isoform specific antibodies. […] Input=10% of starting material applied to each resin.
(§4) To assess the specificity of interactions between CAPON and nNOS, we evaluated the binding of a GST-CAPON fusion protein, consisting of C-terminal 125 amino acids of CAPON, with nNOS, eNOS and inducible NOS (iNOS) (FIG. 2A). Lysates of HEK-293 cells transfected with expression plasmids for each of the three forms of NOS were incubated with GST-CAPON. […] No interactions are evident with the GST control. […]
(§5) The material remaining on the resin was eluted with SDS-PAGE sample buffer and nNOS was detected by immunoblot using antibodies specific to each NOS isoform (Transduction Labs). […]

Another assay has as its system eNOS. Briefly: GST-fusion protein binding assay with lysates of transfected HEK293 cells, eNOS. The conditions noted are these: Western blot. As for the experimental part: as §3, §4, §5
The target in assay [2] is nNOS (Rattus norvegicus, UniProt P29476). The experiment in a line: GST-fusion protein binding assay with lysates of transfected HEK293 cells, nNOS. Also noted: expressed in transfected cells; host or cells: HEK293. The conditions noted are these: Western blot. As for the experimental part:
as §3
(FIG. 4B) The C-terminal 13 amino acids of CAPON are sufficient for binding to nNOS. Various GST-CAPON fusion proteins were incubated with HEK293 lysates containing nNOS. A CAPON fusion protein comprising the last 100 amino acids binds nNOS, as do fusion proteins comprising the last 13 or 20 amino acids of CAPON.
as §4, §5

nNOS (Rattus norvegicus, UniProt P29476), sequence (P29476 whole entry, the tested form may be a part): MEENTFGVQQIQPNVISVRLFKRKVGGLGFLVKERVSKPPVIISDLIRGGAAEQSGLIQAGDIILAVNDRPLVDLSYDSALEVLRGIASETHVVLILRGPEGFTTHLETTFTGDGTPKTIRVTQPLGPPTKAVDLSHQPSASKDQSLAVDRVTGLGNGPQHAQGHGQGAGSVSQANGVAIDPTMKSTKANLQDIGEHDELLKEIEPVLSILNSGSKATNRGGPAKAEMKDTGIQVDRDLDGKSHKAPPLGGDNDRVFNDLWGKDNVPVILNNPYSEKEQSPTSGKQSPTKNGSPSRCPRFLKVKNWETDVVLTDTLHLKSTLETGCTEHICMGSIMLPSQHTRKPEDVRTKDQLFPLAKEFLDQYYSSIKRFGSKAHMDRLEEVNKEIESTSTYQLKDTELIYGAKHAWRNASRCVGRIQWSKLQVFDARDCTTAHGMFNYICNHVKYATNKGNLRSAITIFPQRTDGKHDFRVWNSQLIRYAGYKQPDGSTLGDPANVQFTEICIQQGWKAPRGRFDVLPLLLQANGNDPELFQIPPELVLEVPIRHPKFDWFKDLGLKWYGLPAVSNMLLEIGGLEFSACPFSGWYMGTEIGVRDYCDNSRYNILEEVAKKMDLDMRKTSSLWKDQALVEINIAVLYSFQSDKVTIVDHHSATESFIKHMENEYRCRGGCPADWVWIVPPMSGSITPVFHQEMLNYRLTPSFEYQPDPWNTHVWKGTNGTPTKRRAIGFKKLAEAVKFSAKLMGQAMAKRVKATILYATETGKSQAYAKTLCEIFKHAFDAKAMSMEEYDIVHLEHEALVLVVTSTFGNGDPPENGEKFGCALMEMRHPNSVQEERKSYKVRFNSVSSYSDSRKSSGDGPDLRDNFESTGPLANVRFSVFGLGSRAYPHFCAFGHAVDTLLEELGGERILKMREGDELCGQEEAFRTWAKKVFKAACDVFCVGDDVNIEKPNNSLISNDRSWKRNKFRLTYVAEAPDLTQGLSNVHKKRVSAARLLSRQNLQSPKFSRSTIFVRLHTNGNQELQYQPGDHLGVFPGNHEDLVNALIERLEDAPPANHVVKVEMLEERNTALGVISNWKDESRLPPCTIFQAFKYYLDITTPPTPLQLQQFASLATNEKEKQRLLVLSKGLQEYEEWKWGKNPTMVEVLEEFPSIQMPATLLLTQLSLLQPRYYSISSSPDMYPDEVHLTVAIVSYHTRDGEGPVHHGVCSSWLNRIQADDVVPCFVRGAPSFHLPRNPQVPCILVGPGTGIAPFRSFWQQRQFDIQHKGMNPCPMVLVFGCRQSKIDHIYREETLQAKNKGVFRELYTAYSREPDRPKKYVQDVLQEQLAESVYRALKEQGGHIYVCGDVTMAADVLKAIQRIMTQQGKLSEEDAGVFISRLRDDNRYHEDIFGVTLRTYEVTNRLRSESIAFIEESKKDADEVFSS

B1: 125 amino acid C-terminal fragment of CAPON: Gal4 activation domain fusion of the last 125 amino acids of CAPON (protein)
chain: SGALPVLCESTTPKPEDLHSPLLGAGLADFAHPVGSPLGRRDCLVKLECFRFLPAEDNQPMAQGEPLLGGLELIKFRESGIASEYESNTDESEERDSWSQEELPRLLNVLQRQELGDSLDDEIAV
B1: in the assay on PSD95, the “interaction with PSD95 fragment in the two-hybrid system” value is reported as “failure of CAPON to interact”. Further, in the assay with nNOS [1], the “interaction with nNOS in the two-hybrid system” value is “specifically interacts”. In addition, the “interaction with PSD93 fragment in the two-hybrid system” value in the assay on PSD93 is reported as “failure of CAPON to interact”.

B2: GST-CAPON: GST fusion protein consisting of CAPON amino acids 379-503 (C-terminal 125 amino acids) (protein)
chain: B1 chain
On to B2, for which, in the assay with iNOS, the “binding of iNOS to immobilized GST-fusion protein” value is recorded as “do not interact”. In addition, the “binding of eNOS to immobilized GST-fusion protein” value in the assay with eNOS is “do not interact”. In the assay with nNOS [2], the “binding of nNOS to immobilized GST-fusion protein” value is “interacts strongly”.

For the origin of these results see US6103872A, “CAPON: a protein associated with neuronal nitric oxide synthase” (The Johns Hopkins University, priority 1998, dated 2000).
